Tests used:
Assay in all cases: cell-based or functional assay
[1] = biological target: HIV-1 Env of pseudovirus BJOX015000.11.5 (HIV-1)
[2] = biological target: HIV-1 Env of pseudovirus CNE58 (HIV-1)
[3] = biological target: HIV-1 Env of pseudovirus Q842.d12 (HIV-1)
[4] = biological target: HIV-1 Env of pseudovirus THRO4156.18 (HIV-1)
[5] = biological target: HIV-1 Env of pseudovirus 9004SS_A3_4 (HIV-1)
[6] = biological target: HIV-1 Env of pseudovirus Q259.d2.17 (HIV-1)
[7] = biological target: HIV-1 Env of pseudovirus X2131_C1_B5 (HIV-1)
[8] = biological target: HIV-1 Env of pseudovirus C1080.c03 (HIV-1)
[9] = biological target: HIV-1 Env of pseudovirus 1054_07_TC4_1499 (HIV-1)
[10] = biological target: HIV-1 Env of pseudovirus X1632_S2_B10 (HIV-1)
[11] = biological target: HIV-1 Env of pseudovirus Ce1086_B2 (HIV-1)
[12] = biological target: HIV-1 Env of pseudovirus TRJO4551.58 (HIV-1)
[13] = biological target: HIV-1 Env of pseudovirus ZM249M.PL1 (HIV-1)
[14] = biological target: HIV-1 Env of pseudovirus Q23.17 (HIV-1)
[15] = biological target: HIV-1 Env of pseudovirus Ce1172_H1 (HIV-1)
[16] = biological target: HIV-1 Env of pseudovirus CNE53 (HIV-1)
[17] = biological target: HIV-1 Env of pseudovirus CNE8 (HIV-1)
[18] = biological target: HIV-1 Env of pseudovirus Ce2060_G9 (HIV-1)
[19] = biological target: HIV-1 Env of pseudovirus P0402_c2_11 (HIV-1)
[20] = biological target: HIV-1 Env of pseudovirus Q461.e2 (HIV-1)
[21] = biological target: HIV-1 Env of pseudovirus Ce1176_A3 (HIV-1)
[22] = biological target: HIV-1 Env of pseudovirus C4118.c09 (HIV-1)
[23] = biological target: HIV-1 Env of pseudovirus BJOX028000.10.3 (HIV-1)
[24] = biological target: HIV-1 Env of pseudovirus CNE52 (HIV-1)
[25] = biological target: HIV-1 Env of pseudovirus C2101.c01 (HIV-1)
[26] = biological target: HIV-1 Env of pseudovirus RHPA4259.7 (HIV-1)
[27] = biological target: HIV-1 Env of pseudovirus 62357_14_D3_4589 (HIV-1)
[28] = biological target: HIV-1 Env of pseudovirus 6952.v1.c20 (HIV-1)
[29] = biological target: HIV-1 Env of pseudovirus T250-4 (HIV-1)
[30] = biological target: HIV-1 Env of pseudovirus CNE21 (HIV-1)
[31] = biological target: HIV-1 Env of pseudovirus 6041.v3.c23 (HIV-1)
[32] = biological target: HIV-1 Env of pseudovirus 928-28 (HIV-1)
[33] = biological target: HIV-1 Env of pseudovirus 3016.v5.c45 (HIV-1)
[34] = biological target: HIV-1 Env of pseudovirus 191821_E6_1 (HIV-1)
[35] = biological target: HIV-1 Env of pseudovirus 231966.c02 (HIV-1)
[36] = biological target: HIV-1 Env of pseudovirus Du172.17 (HIV-1)
[37] = biological target: HIV-1 Env of pseudovirus BJOX025000.01.1 (HIV-1)
[38] = biological target: HIV-1 Env of pseudovirus TRO.11 (HIV-1)
[39] = biological target: HIV-1 Env of pseudovirus 3365.v2.c2 (HIV-1)
[40] = biological target: HIV-1 Env of pseudovirus HIV-16055-2.3 (HIV-1)

354BG8 (antibody)
IC50 in TZM-bl assay [1]: > 10 µg/mL | IC80 in TZM-bl assay [1]: > 10 µg/mL | IC50 in TZM-bl assay [2]: 0.165 µg/mL | IC80 in TZM-bl assay [2]: 0.476 µg/mL | IC50 in TZM-bl assay [3]: > 10 µg/mL | IC80 in TZM-bl assay [3]: > 10 µg/mL | IC50 in TZM-bl assay [4]: > 10 µg/mL | IC80 in TZM-bl assay [4]: > 10 µg/mL | IC50 in TZM-bl assay [5]: 0.012 µg/mL | IC80 in TZM-bl assay [5]: 0.032 µg/mL | IC50 in TZM-bl assay [6]: > 10 µg/mL | IC80 in TZM-bl assay [6]: > 10 µg/mL | IC50 in TZM-bl assay [7]: 0.014 µg/mL | IC80 in TZM-bl assay [7]: 0.056 µg/mL | IC50 in TZM-bl assay [8]: > 10 µg/mL | IC80 in TZM-bl assay [8]: > 10 µg/mL | IC50 in TZM-bl assay [9]: 0.048 µg/mL | IC80 in TZM-bl assay [9]: 0.222 µg/mL | IC50 in TZM-bl assay [10]: > 10 µg/mL | IC80 in TZM-bl assay [10]: > 10 µg/mL | IC50 in TZM-bl assay [11]: > 10 µg/mL | IC80 in TZM-bl assay [11]: > 10 µg/mL | IC50 in TZM-bl assay [12]: 0.057 µg/mL | IC80 in TZM-bl assay [12]: 0.218 µg/mL | IC50 in TZM-bl assay [13]: > 10 µg/mL | IC80 in TZM-bl assay [13]: > 10 µg/mL | IC50 in TZM-bl assay [14]: 0.005 µg/mL | IC80 in TZM-bl assay [14]: 0.015 µg/mL | IC50 in TZM-bl assay [15]: 0.019 µg/mL | IC80 in TZM-bl assay [15]: 0.083 µg/mL | IC50 in TZM-bl assay [16]: 0.013 µg/mL | IC80 in TZM-bl assay [16]: 0.058 µg/mL | IC50 in TZM-bl assay [17]: > 10 µg/mL | IC80 in TZM-bl assay [17]: > 10 µg/mL | IC50 in TZM-bl assay [18]: > 10 µg/mL | IC80 in TZM-bl assay [18]: > 10 µg/mL | IC50 in TZM-bl assay [19]: 0.008 µg/mL | IC80 in TZM-bl assay [19]: 0.024 µg/mL | IC50 in TZM-bl assay [20]: > 10 µg/mL | IC80 in TZM-bl assay [20]: > 10 µg/mL | IC50 in TZM-bl assay [21]: 0.022 µg/mL | IC80 in TZM-bl assay [21]: 0.07 µg/mL | IC50 in TZM-bl assay [22]: > 10 µg/mL | IC80 in TZM-bl assay [22]: > 10 µg/mL | IC50 in TZM-bl assay [23]: > 10 µg/mL | IC80 in TZM-bl assay [23]: > 10 µg/mL | IC50 in TZM-bl assay [24]: 1.99 µg/mL | IC80 in TZM-bl assay [24]: 9.76 µg/mL | IC50 in TZM-bl assay [25]: > 10 µg/mL | IC80 in TZM-bl assay [25]: > 10 µg/mL | IC50 in TZM-bl assay [26]: 0.023 µg/mL | IC80 in TZM-bl assay [26]: 0.083 µg/mL | IC50 in TZM-bl assay [27]: > 10 µg/mL | IC80 in TZM-bl assay [27]: > 10 µg/mL | IC50 in TZM-bl assay [28]: 0.023 µg/mL | IC80 in TZM-bl assay [28]: 0.086 µg/mL | IC50 in TZM-bl assay [29]: 0.002 µg/mL | IC80 in TZM-bl assay [29]: 0.005 µg/mL | IC50 in TZM-bl assay [30]: 0.047 µg/mL | IC80 in TZM-bl assay [30]: 0.124 µg/mL | IC50 in TZM-bl assay [31]: > 10 µg/mL | IC80 in TZM-bl assay [31]: > 10 µg/mL | IC50 in TZM-bl assay [32]: 0.616 µg/mL | IC80 in TZM-bl assay [32]: 2.4 µg/mL | IC50 in TZM-bl assay [33]: > 10 µg/mL | IC80 in TZM-bl assay [33]: > 10 µg/mL | IC50 in TZM-bl assay [34]: > 10 µg/mL | IC80 in TZM-bl assay [34]: > 10 µg/mL | IC50 in TZM-bl assay [35]: > 10 µg/mL | IC80 in TZM-bl assay [35]: > 10 µg/mL | IC50 in TZM-bl assay [36]: 0.049 µg/mL | IC80 in TZM-bl assay [36]: 0.194 µg/mL | IC50 in TZM-bl assay [37]: > 10 µg/mL | IC80 in TZM-bl assay [37]: > 10 µg/mL | IC50 in TZM-bl assay [38]: 0.011 µg/mL | IC80 in TZM-bl assay [38]: 0.039 µg/mL | IC50 in TZM-bl assay [39]: 0.057 µg/mL | IC80 in TZM-bl assay [39]: 0.2 µg/mL | IC50 in TZM-bl assay [40]: > 10 µg/mL | IC80 in TZM-bl assay [40]: > 10 µg/mL

Reference: US11325966
